Laboratory results taken from US20090208995.

Legend:
[1] = test system: T1, recombinant Pro-CE (pro-clotting enzyme, His-Tag at the C-terminus, expressed in expresSF+ insect cells)
T1 sequence: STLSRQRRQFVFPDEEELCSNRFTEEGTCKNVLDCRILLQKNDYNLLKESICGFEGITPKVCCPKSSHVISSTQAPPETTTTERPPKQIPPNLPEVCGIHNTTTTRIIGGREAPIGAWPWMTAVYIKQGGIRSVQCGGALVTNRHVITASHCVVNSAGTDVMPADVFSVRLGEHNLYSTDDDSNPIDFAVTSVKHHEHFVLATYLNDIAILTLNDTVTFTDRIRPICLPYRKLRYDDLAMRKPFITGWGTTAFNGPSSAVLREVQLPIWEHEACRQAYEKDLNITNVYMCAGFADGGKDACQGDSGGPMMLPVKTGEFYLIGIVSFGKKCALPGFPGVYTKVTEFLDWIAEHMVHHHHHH

[2] = test system: Pro-CE derived from a horseshoe crab hemocyte extract (DS-10AII fraction)
[3] = biological target: T2, recombinant Pro-CE (pro-clotting enzyme, His-Tag at the C-terminus, expressed in expresSF+ insect cells)
T2 chain: T1 sequence

[4] = biological target: T3, recombinant factor B (His-Tag at the C-terminus; culture supernatant, MOI = 0.1, 96 h)
T3 chain: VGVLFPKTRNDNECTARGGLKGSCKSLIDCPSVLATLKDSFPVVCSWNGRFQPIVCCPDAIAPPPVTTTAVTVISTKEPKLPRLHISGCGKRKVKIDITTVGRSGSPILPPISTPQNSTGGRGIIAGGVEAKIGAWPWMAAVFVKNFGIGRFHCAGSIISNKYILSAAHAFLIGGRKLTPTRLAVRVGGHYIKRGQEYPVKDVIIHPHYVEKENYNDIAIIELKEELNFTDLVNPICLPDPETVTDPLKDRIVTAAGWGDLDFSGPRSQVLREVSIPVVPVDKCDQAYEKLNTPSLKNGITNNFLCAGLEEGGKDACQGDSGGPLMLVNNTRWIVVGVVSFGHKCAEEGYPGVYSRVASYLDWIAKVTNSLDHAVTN

recombinant factor G (culture supernatant; alpha-subunit:beta-subunit = 2:1)
Reactivity, Average; CSBG 0 ng/mL [1]: 0.078
Reactivity, Average; CSBG 1 ng/mL [1]: 0.139
Reactivity, Average; CSBG 10 ng/mL [1]: 0.532
Reactivity, endpoint assay, Boc-Leu-Gly-Arg-pNA; CSBG 0 ng/mL, first reading [1]: 0.079
Reactivity, endpoint assay, Boc-Leu-Gly-Arg-pNA; CSBG 0 ng/mL, second reading [1]: 0.076
Reactivity, endpoint assay, Boc-Leu-Gly-Arg-pNA; CSBG 1 ng/mL, first reading [1]: 0.14
Reactivity, endpoint assay, Boc-Leu-Gly-Arg-pNA; CSBG 1 ng/mL, second reading [1]: 0.138
Reactivity, endpoint assay, Boc-Leu-Gly-Arg-pNA; CSBG 10 ng/mL, first reading [1]: 0.543
Reactivity, endpoint assay, Boc-Leu-Gly-Arg-pNA; CSBG 10 ng/mL, second reading [1]: 0.52
Reactivity, ΔA; CSBG 1 ng/mL [1]: 0.061
Reactivity, ΔA; CSBG 10 ng/mL [1]: 0.454
hydrolysis of Boc-Leu-Gly-Arg-pNA in the complete reconstitution system with BG [1]: the same enzymatic activity as that of native factor LAL was found to be expressed

Factor G derived from a horseshoe crab hemocyte extract (DS-3GII fraction)
Reactivity, Average; CSBG 0 ng/mL (A 405 to 492 nm) [2]: 0.058
Reactivity, Average; CSBG 1 ng/mL (A 405 to 492 nm) [2]: 0.437
Reactivity, Average; CSBG 10 ng/mL (A 405 to 492 nm) [2]: 0.986
Reactivity, endpoint assay, Boc-Leu-Gly-Arg-pNA; CSBG 0 ng/mL, first reading (A 405 to 492 nm) [2]: 0.056
Reactivity, endpoint assay, Boc-Leu-Gly-Arg-pNA; CSBG 0 ng/mL, second reading (A 405 to 492 nm) [2]: 0.06
Reactivity, endpoint assay, Boc-Leu-Gly-Arg-pNA; CSBG 1 ng/mL, first reading (A 405 to 492 nm) [2]: 0.44
Reactivity, endpoint assay, Boc-Leu-Gly-Arg-pNA; CSBG 1 ng/mL, second reading (A 405 to 492 nm) [2]: 0.434
Reactivity, endpoint assay, Boc-Leu-Gly-Arg-pNA; CSBG 10 ng/mL, first reading (A 405 to 492 nm) [2]: 0.969
Reactivity, endpoint assay, Boc-Leu-Gly-Arg-pNA; CSBG 10 ng/mL, second reading (A 405 to 492 nm) [2]: 1
Reactivity, ΔA; CSBG 1 ng/mL (A 405 to 492 nm) [2]: 0.379
Reactivity, ΔA; CSBG 10 ng/mL (A 405 to 492 nm) [2]: 0.928
Reactivity, Average; CSBG 0 ng/mL (A 405 to 492 nm) [1]: 0.05
Reactivity, Average; CSBG 1 ng/mL (A 405 to 492 nm) [1]: 0.484
Reactivity, Average; CSBG 10 ng/mL (A 405 to 492 nm) [1]: 0.987
Reactivity, endpoint assay, Boc-Leu-Gly-Arg-pNA; CSBG 0 ng/mL, first reading (A 405 to 492 nm) [1]: 0.051
Reactivity, endpoint assay, Boc-Leu-Gly-Arg-pNA; CSBG 0 ng/mL, second reading (A 405 to 492 nm) [1]: 0.049
Reactivity, endpoint assay, Boc-Leu-Gly-Arg-pNA; CSBG 1 ng/mL, first reading (A 405 to 492 nm) [1]: 0.48
Reactivity, endpoint assay, Boc-Leu-Gly-Arg-pNA; CSBG 1 ng/mL, second reading (A 405 to 492 nm) [1]: 0.487
Reactivity, endpoint assay, Boc-Leu-Gly-Arg-pNA; CSBG 10 ng/mL, first reading (A 405 to 492 nm) [1]: 0.988
Reactivity, endpoint assay, Boc-Leu-Gly-Arg-pNA; CSBG 10 ng/mL, second reading (A 405 to 492 nm) [1]: 0.986
Reactivity, ΔA; CSBG 1 ng/mL (A 405 to 492 nm) [1]: 0.434
Reactivity, ΔA; CSBG 10 ng/mL (A 405 to 492 nm) [1]: 0.937
enzymatic activity with DS-3GII fraction and BG [1]: the recombinant Pro-CE exhibited an enzymatic activity almost equivalent to that of Pro-CE derived from a horseshoe crab hemocyte extract

B1: recombinant factor B (His-Tag at the C-terminus; culture supernatant, MOI = 0.1, 96 h) (protein)
chain: T3 chain
Reactivity, Av.; sample (A) PCE + FB + FC (factor C also present), Et 0 ng/mL (A405 to 492 nm) [3]: 0.023
Reactivity, Av.; sample (A) PCE + FB + FC (factor C also present), Et 100 ng/mL (A405 to 492 nm) [3]: 0.649
Reactivity, Av.; sample (B) PCE + FB, Et 0 ng/mL (A405 to 492 nm) [3]: 0.023
Reactivity, Av.; sample (B) PCE + FB, Et 100 ng/mL (A405 to 492 nm) [3]: 0.023
Reactivity; sample (A) PCE + FB + FC (factor C also present), Et 0 ng/mL, first reading (A405 to 492 nm) [3]: 0.024
Reactivity; sample (A) PCE + FB + FC (factor C also present), Et 0 ng/mL, second reading (A405 to 492 nm) [3]: 0.022
Reactivity; sample (A) PCE + FB + FC (factor C also present), Et 100 ng/mL, first reading (A405 to 492 nm) [3]: 0.652
Reactivity; sample (A) PCE + FB + FC (factor C also present), Et 100 ng/mL, second reading (A405 to 492 nm) [3]: 0.645
Reactivity; sample (B) PCE + FB, Et 0 ng/mL, first reading (A405 to 492 nm) [3]: 0.023
Reactivity; sample (B) PCE + FB, Et 0 ng/mL, second reading (A405 to 492 nm) [3]: 0.022
Reactivity; sample (B) PCE + FB, Et 100 ng/mL, first reading (A405 to 492 nm) [3]: 0.022
Reactivity; sample (B) PCE + FB, Et 100 ng/mL, second reading (A405 to 492 nm) [3]: 0.023
hydrolysis of Boc-Leu-Gly-Arg-pNA in the complete reconstitution system with Et (factor C also present) [3]: cascade reaction of Et proceeds in a concentration-dependent manner through employment of recombinant factors C and B and recombinant Pro-CE in combination
hydrolysis of Boc-Leu-Gly-Arg-pNA in the presence of Et at high concentration, without factor C [3]: in the samples containing recombinant Pro-CE and/or recombinant factor B, activation attributed to high concentration Et was not observed

B2: recombinant factor C (derived from Tachypleus rotundicauda), commercial element of PyroGene (product of Cambrex) (protein)
chain: KGVDLGLCDETRFECKCGDPGYVFNIPVKQCTYFYRWRPYCKPCDDLEAKDICPKYKRCQECKAGLDSCVTCPPNKYGTWCSGECQCKNGGICDQRTGACACRDRYEGVHCEILKGCPLLPSDSQVQEVRNPPDNPQTIDYSCSPGFKLKGMARISCLPNGQWSNFPPKCIRECAMVSSPEHGKVNALSGDMIEGATLRFSCDSPYYLIGQETLTCQGNGQWNGQIPQCKNLVFCPDLDPVNHAEHKVKIGVEQKYGQFPQGTEVTYTCSGNYFLMGFDTLKCNPDGSWSGSQPSCVKVADREVDCDSKAVDFLDDVGEPVRIHCPAGCSLTAGTVWGTAIYHELSSVCRAAIHAGKLPNSGGAVHVVNNGPYSDFLGSDLNGIKSEELKSLARSFRFDYVRSSTAGKSGCPDGWFEVDENCVYVTSKQRAWERAQGVCTNMAARLAVLDKDVIPNSLTETLRGKGLTTTWIGLHRLDAEKPFIWELMDRSNVVLNDNLTFWASGEPGNETNCVYMDIQDQLQSVWKTKSCFQPSSFACMMDLSDRNKAKCDDPGSLENGHATLHGQSIDGFYAGSSIRYSCEVLHYLSGTETVTCTTNGTWSAPKPRCIKVITCQNPPVPSYGSVEIKPPSRTNSISRVGSPFLRLPRLPLPLARAAKPPPKPRSSQPSTVDLASKVKLPEGHYRVGSRAIYTCESRYYELLGSQGRRCDSNGNWSGRPASCIPVCGRSDSPRSPFIWNGNSTEIGQWPWQAGISRWLADHNMWFLQCGGSLLNEKWIVTAAHCVTYSATAEIIDPNQFKMYLGKYYRDDSRDDDYVQVREALEIHVNPNYDPGNLNFDIALIQLKTPVTLTTRVQPICLPTDITTREHLKEGTLAVVTGWGLNENNTYSETIQQAVLPVVAASTCEEGYKEADLPLTVTENMFCAGYKKGRYDACSGDSGGPLVFADDSRTERRWVLEGIVSWGSPSGCGKANQYGGFTKVNVFLSWIRQFI
Reactivity, Av.; sample (C) PCE + FC, Et 0 ng/mL (A405 to 492 nm) [3]: 0.02
Reactivity, Av.; sample (C) PCE + FC, Et 100 ng/mL (A405 to 492 nm) [3]: 0.03
Reactivity; sample (C) PCE + FC, Et 0 ng/mL, first reading (A405 to 492 nm) [3]: 0.02
Reactivity; sample (C) PCE + FC, Et 0 ng/mL, second reading (A405 to 492 nm) [3]: 0.02
Reactivity; sample (C) PCE + FC, Et 100 ng/mL, first reading (A405 to 492 nm) [3]: 0.029
Reactivity; sample (C) PCE + FC, Et 100 ng/mL, second reading (A405 to 492 nm) [3]: 0.03
Reactivity, Av.; sample (D) FB + FC, Et 0 ng/mL (A405 to 492 nm) [4]: 0.025
Reactivity, Av.; sample (D) FB + FC, Et 100 ng/mL (A405 to 492 nm) [4]: 0.033
Reactivity; sample (D) FB + FC, Et 0 ng/mL, first reading (A405 to 492 nm) [4]: 0.024
Reactivity; sample (D) FB + FC, Et 0 ng/mL, second reading (A405 to 492 nm) [4]: 0.025
Reactivity; sample (D) FB + FC, Et 100 ng/mL, first reading (A405 to 492 nm) [4]: 0.032
Reactivity; sample (D) FB + FC, Et 100 ng/mL, second reading (A405 to 492 nm) [4]: 0.034
hydrolysis of Boc-Leu-Gly-Arg-pNA in the complete reconstitution system with Et (Pro-CE also present) [4]: cascade reaction of Et proceeds in a concentration-dependent manner through employment of recombinant factors C and B and recombinant Pro-CE in combination
